From article PMC4565128

Target: Aldehyde dehydrogenase 7A1 (full-length recombinant human cytosolic ALDH7A1 isoform 2) (human)
Assay: SAXS

In the case of “Aldehyde dehydrogenase 7A1 (full-length recombinant human cytosolic ALDH7A1 isoform 2) (enzyme)”, the stoichiometry N is reported as 4.
